Test results from the supplement of paper PMC12042874.
± gives the uncertainty stated by the source.

Assay: amyloid nucleation score (Sup35N fusion, yeast selection) (log enrichment); library NNK2; higher = more nucleation; inactive = no reads after selection
In short: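 DiMSum was used to calculate nucleation scores as log enrichment of output over input reads, centred on the mode score of non-aggregating sequences. Sequences with fewer than 100 input reads were not scored. Input and output came from Illumina sequencing of plasmid inserts in psi-negative yeast expressing peptides of 20 random codons fused to Sup35N, induced 24 hours with 100 μM copper sulfate and then grown 7 days at 30°C on medium lacking adenine and uracil.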

Substance	amyloid nucleation score
NFLWVLSRKSHGIPYRKFSN	inactive
LQLASNVHEHKQNGLSHRIN	0.439 ± 0.5
LVSMLVFL	2.15 ± 0.15
SQYMVGPGKRRKKSYGVG	inactive
NIVVPRRL	2.53 ± 0.13
LCSRSYGFRFYFSSGAQSVR	0.541 ± 0.66
TLGLLDHWSLREWDTTGWVE	0.691 ± 0.37
GFVGF	2.68 ± 0.17
NINMWSLCRFLWDAFARR	0.378 ± 0.26
KVWECLEAGNFGVDMRWCDR	0.524 ± 0.31
TVLLSLSYADCSMLWLVRTL	-0.304 ± 1.1
VYFTSVMNSCVYVSAVCEMC	6.953 ± 0.046
DVSESRSTVDGSDNEGWLTD	0.299 ± 0.42
SASFRGG	-0.935 ± 0.48
NTVKKLHLLQHHRVYVCATT	-0.965 ± 0.78
NHTSNIGSRGTAFFWVLR	7.187 ± 0.069
PSSGPPNESAMSPITYSGEG	-0.684 ± 1.1
LIFCGECTILNTGGGNRAWV	8.361 ± 0.03
TTGRTYIRLIYIMCVSMNVS	inactive
RCYVFKLSFGDTQCELFRIT	6.406 ± 0.049
VGNIGPT	0.338 ± 0.46
CLKPFRHTFEFLYQVDFTEV	-1.56 ± 1.1

Substance	amyloid nucleation score
QFSSLVFAEEKMNPRMCMVR	-0.294 ± 0.2
SECCLVELINLTDGGMRGSA	0.5 ± 0.42
VWHVDTAVLTRA	1.08 ± 0.41
YGRPIIVMYKLLRQNSSSRL	-0.496 ± 0.48
ERYIRF	0.187 ± 0.32
MIEKVQFQCLVIICRNGVV	6.565 ± 0.052
MHRSCGEIACTKKVAIEMKD	1.34 ± 0.18
ITHQRSSACIVGFILRRRCN	-0.369 ± 0.54
RVMGCVMGIRGWRIRIGNSG	1.42 ± 0.47
CYVRI	-0.603 ± 1.1
MSLIKTHGKLTVGDVDFPKF	-0.753 ± 0.44
WSGLNSNRSVDNPSISTGWS	-0.532 ± 0.56
ELTGYT	-0.388 ± 0.56
FCPLLPVRFHV	-0.533 ± 0.61
SGFLDLPVYPVYNHNRTKMI	0.267 ± 0.57
WTHDVWSGSYEWARDGLDVK	-0.163 ± 0.79
VCASYMQFIDHCSKKEVWLN	-1.1 ± 0.44
ALIYCVFSFPFEAYDYMRFR	inactive
YYPGL	-1.45 ± 1.1
QVSFEFNRLMGCMLKMTMMT	-0.308 ± 0.49
VERVPGCTRTRTFWLNSSDW	0.591 ± 0.25
YVTCCSGVGVMLFRCANLNC	5.37 ± 0.082

Substance	amyloid nucleation score
CGFFKVRENGFCGFKKMSFS	-1.12 ± 1.1
TPLEYF	-0.19 ± 0.3
HFNLCTQNMSNGYRDCRHT	4.68 ± 0.11
VIPFISIRLCAAVRVFVPQS	5.04 ± 0.075
CVDVDIKMLPGFCRCNIPLC	-1.34 ± 1.1
VDLGNYSSYRDFRETRLRPM	0.229 ± 0.39
AEKQVCLAQKFLNLQLIFRW	1.72 ± 0.12
SCSSLYT	1.11 ± 0.43
KSAYIGASNHAEIRHQSLSS	0.253 ± 0.24
VLILDVVYSLDESEVSVVWY	-0.429 ± 0.42
CFRKLQYISFYYTTWVILDA	inactive
PFSYFRWWPYRILAWSTWLV	4.89 ± 0.061
VCYAGLLAKRLRLVVVSGNV	0.531 ± 0.26
LYRFSNST	-0.968 ± 0.29
ASVILTEPFMQGFSIYVGAG	-0.746 ± 0.49
QPAVQGITRRKVCWVIMQNA	0.336 ± 0.46
NARITVLGSHPWLCPGKVSV	1.06 ± 0.54
DFYSNYILLRSSP	-1.84 ± 1
GEPSCATCITVCLVLLSTQM	6.48 ± 0.081
VKALNKLGAKINLMIRFVRS	-0.306 ± 0.39
AYKTSHVWSLYRVHGV	0.41 ± 0.25
SALRVSEGMLSSGEIAHLVY	-0.052 ± 0.23

Substance	amyloid nucleation score
PYILRFRRDLRGFRI	0.449 ± 0.56
VFLVCYTYLWTFKSCTYFMN	-1.88 ± 0.78
SFIPRLYLV	-0.016 ± 0.53
FLCMFMFESWYDHNAVAVSY	0.66 ± 0.57
LLWQTYIPNAGENAVSSQLF	-0.87 ± 1
IPIWFERIALSDFKLVFSHN	inactive
RTGGNILQYFYIVRAHSGWC	1.35 ± 0.16
AILNAVGCNWGTRCDGLSVQ	-0.213 ± 0.48
INFSTLYDLGESFFYQCPKM	inactive
MIVVCVRLYQGRYGRMPDYE	-0.16 ± 0.37
WAYPRNVQ	0.327 ± 0.38
KNKSFNMACPVLVYGGFLIR	inactive
RINKGISGRGSD	0.582 ± 0.57
GMVVFVI	0.21 ± 0.51
RLSLQTVRLPLLYIWDEDSW	3.43 ± 0.15
ASDRGI	0.532 ± 0.18
CMGDNVIC	-0.954 ± 0.37
ASVLTDPGVRSGRLRVCVGQ	-0.121 ± 0.35
ACSVNCLRECNR	inactive
